Data taken from a protein production outcome set (Wang et al. 2014).

Test: label from the status in PepcDB records

Sequence	protein production
MNVRHISYFNQWHGALVTNMLAGVLLALALLPGAIAFSFIAGVSPTIGMLSTGLMMLVISLTGNRTLMVSAPSSGVSLVVAPLMSSHGMPAVILATLIMGIIQILMGICRINKLLDYIPTGVVIGFMNALGVLLFTSQLKNILNISNATYVIAVASFLIIWLAQRYIRFMPAPLIAIIILTICAWWLKPDIVYVHHLASLHIHVPMLSFPDAMYDMHIVGISSMYGVTMAIVAVVQTTLTARMMDAVTATKSDKNKETIGQGVANTIVALFGGYGGSALVGQSRFNATMGATSRVSTLITGAFLLISLFVFGDIIGQIPMAVLATVLITISLNTFDRRTISFIKVSPIKHGAIVVLTMLIILSTNNLAAGVVLVSLLYYLIQGFNKRKGRDI	failed
MKVEFLMTNHNHQHHHSHAHGHVHTDNKKVLMFSFIIISLFMLVEIIGGFLANSLALLSDGFHMLSDAISLGVALIAFIYAEKHATKSKTYGYKRFEILAALFNGVTLFIISIIIIIEAIRRFLEPPEVQSKEMFIISVIGLMVNIIVAILMFKGGDTSHNLNMRGAFLHVLGDLFGSVGAIVASLLIWGFNFTIADPIASILVSLIILKSAYGISKSSLNILMEGTPNDIDLNAVIKAISKDERIQNVHDCHVWTISNDMNALSCHAVVPEYLSVQTCETMLKSIESDLLQLNIQHMTIQLETPEHKHDESTLCSGIHEHSH	failed
MKVIKTAPLIPSEIKVLEKEGNRVKISLAPFEFGYAVTLAHPIRRLLLLSSVGYAPVGLKIEGVHHEFDSLRGVTEDVSLFIMNLKNIRFIAKALVGQDSSLENQSVVVDYSFKGPMELRARDLNSEQIEIVNPEMPLATINEDAQLNFSLIIYKGMGYVPSENTRELMPEGYMPLDGSFTPIKKVVYEIENVLVEGDPNYEKIIFDIETDGQIDPYKAFLSAVKVMSKQLGVFGERPIANTEYSGDYAQRDDAKDLSAKIESMNLSARCFNCLDKIGIKYVGELVLMSEEELKGVKNMGKKSYDEIAEKLNDLGYPVGTELSPEQRESLKKRLEKLEDKGGND	failed
MNTSYSQSTLRHNQVLIWLCVLSFFSVLNEMVLNVSLPDIANEFNKLPASANWVNTAFMLTFSIGTALYGKLSDQLGIKNLLLFGIMVNGLGSIIGFVGHSFFPILILARFIQGIGAAAFPALVMVVVARYIPKENRGKAFGLIGSLVAMGEGVGPAIGGMVAHYIHWSYLLLIPTATIITVPFLIKLLKKEERIRGHIDMAGIILMSAGIVFFMLFTTSYRFSFLIISILAFFIFVQHIRKAQDPFVDPELGKNVFFVIGTLCGGLIFGTVAGFVSMVPYMMKDVHHLSTAAIGSGIIFPGTMSVIIFGYIGGLLVDRKGSLYVLTIGSALLSSGFLIAAFFIDAAPWIMTIIVIFVFGGLSFTKTVISTVVSSSLKEKEAGAGMSLLNFTSFLSEGTGIAIVGGLLSIGFLDHRLLPIDVDHSTYLYSNMLILFAGIIVICWLVILNVYKRSRRHG	not failed
MIERLRGALASASFPVMALLLLSAIVVYPLWTMLFLGAVFAYIVRPVALRINRRIPYLSVSIILAMIVVIMPLVGILVFTVDSIINSAPSLLSLAGSIHVPGAGNLQPSAENTLANLRTVLRDILSGSLNYVVAILQSVPMISLQLFVFLSSTFYFARDGKRLVGYIRTLIPEETRPFMERMASETERVLLSIFYGHFLTALAIGLMAAVGFHLLGYPYAILLGIMTGLFQLIPVIGPWAAYTPLSIYDFVTGNILRGVLVLIFGLFLSTIDIYLRPKLSGKYADIHPMIFLVGFLGGPVVWGVAGFIVGPLVLGLAYAALEAYRMESGGEEVQ	failed
MYMSSLQSTRERVLGTPRRRYKVLVAKMGLDGHDRGAKVVARALRDAGFEVVYTGLRQTPEQVAMAAVQEDVDVIGVSILNGAHLHLMKRLMAKLRELGADDIPVVLGGTIPIPDLEPLRSLGIREIFLPGTSLGEIIEKVRKLAEEKRMREEAEASEQVGQA	not failed
MVWWWRALGPSGEGQPGPLPSSLFPVIDPSRPTMQDIECLGVYTSGGDAPGMNACLRAVVRTAIANDIAVMGIRRGYEGMIEADFVEMERRSVSNILQSGGTILKSARSEAFRTEEGRRAAANSLRENGIDALVAIGGDGTFRGASKLYDEHGLGVVGCPGTIDNDLYGTDQTIGYDTALNTAIDNIDRIRDTADAHNRLFLVEVMGRDAGFIALNSGIGGGAELILIPETITEMDMVKERILSLMTAQRRSTIVVVAEGDELGGAQGIERALRDDAAFSDIELRSTILGHTQRGGAPTASDRVLASRLGVAAVESLMDGHSDVMVGMTNNEIKLTPLRNVYGRRKSIDYDLLKLTQILS	failed
MRILSIHLKNIKSHRDTELTFSAGINVLSGPNGVGKSTVFEAIGYALFGVDARDFVSNVDRFLSIGTKKGEIAVAFCTDAGETWRVTRTVGTPAKWLLAREQGGAFEVEEHARIEETEARIAELLGLDNGRPLAEQFKLVIGPFQNEFLGPFVIKQPTKRQEAFDEILGIDAWRKTYKSTSSLLSAVQEKIKIIAVEIEAKEAQVAVLPEREDELAKIKTDAEALRKVLSSQADALRDVEKQLVELDDQEKGIAALQAEIQILVNRITDGEGKIKDQGQRVGEAEKAGGVLEQTRAGKEAFERAESRLAELVSKDKQRREVEKDVTRLENETQRLTQAVEHEQKEIEGEGRRLREEEDALAKARNELEPDRKVVDTAGRLPGLRDEINRVRSEKGLLEGRRIGLLEGQEKLGEGTCPFFKEPCRNVAGTTPKDVFTTRIAELDRKMQALTEALGKLSVEVADAEAAEKQLAALTVRSQELHKQTMGLVERRARNEKRVATLQTLSTQQIEAATRAKARRDDLQVFAGLDHEIERATAERGRFQADRDAYHAHEKDALDLDNRRQTLEKMLRLLDELQKQLIGKKEELIRLQETYKPGQHKEARDQKDRLVAQVASLGQQIENLEKDRKRLEDEIGKLKLLKDEIGRKQAERNSFEQKEKLVKFLRNQVFKNVSAQLSERFREEISLRADRIYRTIAEADEELVWSENYQIVLRDMTDGVVRERSDDQLSGGQTMSAVVALRLALLQTIGARIAFFDEPTSNLDASRRENLATAFRAIDVGREEVTEHWYDQLFLISHDVAFTEITDQMIQLGE	failed
MEEVEEFKYEPKSVKEIFIEMKDTVELMVDLAYASLLFGDKEIAEEVLELEERIDLLNYQLMMHSVLAARNVKEAEQVITILQIANAIEDISNAAGDLAKMVLEGVELHPVIKETILEGEEIIGKIQVYPESVIVGKTLGELDLATNTGVWIIAVRRGKRWIFGPNENFKIRAGDVLIGRGTRTSIDHLKEIARGAIRVIGNERA	not failed
MKKATMLTYLEEQLEKHLGDYEVGLDWDRKNHTIEVIVRLYAENNEQVAIDDVDGTLSEEEFIEFEDGLLFYNPQKSVVDDEEYLVTIPYEGKKGLRKAVLDGFIHYLKVVLDEGQSDLLDFLSDETAEVFELHWEPADFEAMIKKVAETEKEQWIAYPSY	not failed
MNSTRGVTLIQLSSALAYSHALMNQVVNPGDHVIDATVGNGHDTVYLAKLVGTTGHVDGFDIQSAAIEATTTALDKAALTHQVTLWQTGHEHIADKIAADQPIKCAVFNLGYLPGGDKQIITKPTTTLTAIKAIQERLVTNGLIILLVYAGHPGGATEAQAVLDYVTNLDQHQFQVLQYQFINQVHVPPYLLAIQKR	failed
MSEELMISPAAPAAPAAGSALTSAQFRKLAEVPPEIEWFANIDSLQTRRAYQNDLRGFMAFAGIVSPEDFRLITRSHVLAWRKRLEEEQLGGATIRRKLAALSSLFEYLCEANAVTHNPVKGVKRPPVESWQGKTPALGDVQARALLEAPNAKTLKGKRDRAILSALLYHGIRREELARLKVKDYNQSRRGVPHLRIKGKGGKMRFIPTHPGTLTLIEEYLEAAGHGHDPDAPLFRPVKNNVHGHTLTALTPDSIYFEVVLKYLRKLGIFGENMGPHVMRATAATNALDNGADIAKVQEWLGHANIATTRIYDHRKTRPEDSPTFKVSY	failed
MKKGIQPLKWKDVPALAVLGFFSVTLHHLLINTGQQYVTAVASSILSQSIPLFTFIISALLFKEQISFKQWLCILLGLCGAVLVVSGDHGFGMPSPYSLLIVLAAIAWGLYFNLYKKFALNYDALSMMCYIIWFGTLPLLFYSAHLPSEILHATWQANMSVVLLGIFPSAMAYVLWGYVLKNMPLTIASNFLYCSPIVAMSLAVLFLNEKPSIIVLLGGVIIVGSLVWMNWGRKK	failed
MDIKSETEQYKRKAEIEKHTKEPNKHRDEAVLQNRAGRHRDRAVIDHKSEERERESVQNVTEMSGIERSEGEWSPPVEGITDEELPSHSPMDDLGFALFASWGRKTERQRMGSPDIRIYIFNPIKKIIIMETRIRFGLEWKPSGFGS	failed
MSVASLPSFLCLSQESSRRASARRESPSSPRTWAGWIPVTGTGMRECVVALCLLLTLIFAAASPALAFNPDEVLKDPVLEQRARNLTSQLRCMVCQNQSIDDSNAELARDLRVLVRERLVQGDSDKAVIDYVVSRYGEFVLLKPRLSLRTLLLWGAPIGLTLAGIFAVFVFSRRRATQERPQKLSADEEERIRNLIEK	failed
MSDQVPKPHRHHIWRITRRTLSKSWDDSIFSESAQAAFWSALSLPPLLLGMLGSLAYVAPLFGPDTLPAIEKSALSTAHSFFSPSVVNEIIEPTIGDITNNARGEVASLGFLISLWAGSSAISAFVDAVVEAHDQTPLRHPVRQRFFALFLYVVMLVFLVATAPVMVVGPRKVSEHIPESLANLLRYGYYPALILGLTVGVILLYRVALPVPLPTHRLVLGAVLAIAVFLIATLGLRVYLAWITRTGYTYGALATPIAFLLFAFFGGFAIMLGAELNAAVQEEWPAPATHAHRLGNWLKARIGVGTTTYSSTAQHSAVAAEPPS	failed
MSFAIEALGQGRFDEVEILCREILKEVPDHFHATHLLGLRAFDGGWLEDAQFLLERAVALDPRSPDAHGNLGAVYFALERFKDARACQEKAIALKPNCPITLTNLGNTLLHLGLAKEAIELHERAIRLKPNYADAFCNRGMAELMIGQFERAGVDFDRALSFQPRHAEAIAGKAMVSLELRHFEAAEAAFEASLALKPGSPRILVQRGRLHLTLYRLEQAAADFDAALAQSPRNELALCWRAQVDIMVRNTAGAMAGVKTLLEVNPQSEAGMSLLASCHANQGDIATALEYLDAALAIAPDFPEAIGYKIFVLDYLPEADFVVQQAARKYWWDQIGAKLPQRTLSPRDLDPDRRIVIGYVASEFRQHSAAYTLLPVMRHHDHAKFKIVCYSCWPLQDGMTEKFKACADVWVEAAQFSDDELADRIQADGIDILIDVSGHTTGSRLHVFSRKPAPIQVTGFGHATGTGLQTMDYVLADPIFIPQSARHLLAEKVYDLPSLITIDPIQDVPPSELPMLRNGYVTFGVFNRILKISDEAIRVWSKVMREVAGSKIIIKNGLLDDPMLRDGLIARFVAQGIAEENVICMGSTSRREHLRAFANVDISLDTFPQNGGISTWESLYAGVPVVAKLGNGSSSRAGGSIVAAVGLGDWVADDDEGYAAIACKFAAQPAHLAKLRADLPAQIANSPAGNVEIYTREVEAGYRQFWRDYCAEASETCDVA	failed
MLAAEANLELDRETIRRQLWQSEAPEKRAGSLRQLLARIEQSIPAALPPLLKATRTHIGLADGWEVDVHMLKQKGPLAAEDGDILNGELLESAKSPTQGAEDWLTFERQRVDELRAAHLTRLVETAEDRSDEEQVAFARRLLELDPASETAYRALMRTYVRMNDPAAARQTYLKCKSQLKDEFDAEPEESTTALARELGLIPAAQPAAAERPSAGPSGFADLLGQPRIIILPPESIFTDPLMERVGRALLEDVTIGLSQQRGFRVIAAHTSLEILSRSVDPARAVPRPLDLSFDYAVYVTIQGRDEDVYATCRLTRTTTSEVIWALELPLVMQKISESFAHLTRRIVSSLADTVERHELAMPIGDAPPSAYRLYLEGKRLIAQTDLQHLRQARKWFKSSLNRYENFSAAHAGVSRALGMEWLIRGMQDTELLDEANGAARQAQQSDPNSGRAYRELGFVALYRRRFDESLDYFQQAQDLNPNDADILADYADALCHYGDFDKALDLNNAAFKLNPLPPDYYYWNRGGIHFDRGEYQQAIEALEPVKSKQATARLLAAAHAMAGDMKKAGGYASVVLDNFPDFRSEDIRHFVPDRDPRYTETLIHGLHLAGLP	failed
